Data on four molecules can be found in patent publication US20250092140A1 (SHENGHE CHINA BIOPHARMACEUTICAL, published 2025).

Sequences and labels used below:
T1: human-NKP30-His (human, UniProt O14931 19-138)
T1 construct: Bought protein; also called NKP30 protein; NKP30-his protein; not shown: His tag
T1 sequence (looked up): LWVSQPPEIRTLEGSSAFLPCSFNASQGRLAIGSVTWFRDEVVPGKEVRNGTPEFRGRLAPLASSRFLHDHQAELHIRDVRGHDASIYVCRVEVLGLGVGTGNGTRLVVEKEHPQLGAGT

B1: constructed antibody B23 (bispecific antibody, human IgG4 S228P, kappa)
heavy: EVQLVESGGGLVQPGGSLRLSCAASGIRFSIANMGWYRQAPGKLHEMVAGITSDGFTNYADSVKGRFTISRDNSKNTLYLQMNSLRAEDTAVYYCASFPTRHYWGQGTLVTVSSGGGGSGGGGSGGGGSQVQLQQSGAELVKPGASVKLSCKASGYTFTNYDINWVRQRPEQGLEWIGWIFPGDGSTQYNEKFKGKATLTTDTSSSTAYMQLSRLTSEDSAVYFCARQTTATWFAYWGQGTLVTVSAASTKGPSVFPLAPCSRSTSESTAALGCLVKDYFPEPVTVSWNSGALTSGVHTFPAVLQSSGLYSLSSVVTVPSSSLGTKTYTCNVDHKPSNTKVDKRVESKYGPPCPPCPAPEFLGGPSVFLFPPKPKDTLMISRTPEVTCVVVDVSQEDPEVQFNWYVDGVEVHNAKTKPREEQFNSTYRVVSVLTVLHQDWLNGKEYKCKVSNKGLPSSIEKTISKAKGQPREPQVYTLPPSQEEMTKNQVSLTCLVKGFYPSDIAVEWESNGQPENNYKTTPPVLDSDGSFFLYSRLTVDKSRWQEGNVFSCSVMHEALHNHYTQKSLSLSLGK
light: DIVMTQSPATLSVTPGDRVSLSCRASQSISDYLHWYQQKSHESPRLLIKYASQSISGIPSRFSGSGSGSDFTLSINSVEPEDVGVYYCQNGHSFPLTFGAGTKLELKRTVAAPSVFIFPPSDEQLKSGTASVVCLLNNFYPREAKVQWKVDNALQSGNSQESVTEQDSKDSTYSLSSTLTLSKADYEKHKVYACEVTHQGLSSPVTKSFNRGEC
notes: IgG4 subtype
B2: constructed antibody D28 (bispecific antibody, human IgG4 S228P, kappa)
heavy: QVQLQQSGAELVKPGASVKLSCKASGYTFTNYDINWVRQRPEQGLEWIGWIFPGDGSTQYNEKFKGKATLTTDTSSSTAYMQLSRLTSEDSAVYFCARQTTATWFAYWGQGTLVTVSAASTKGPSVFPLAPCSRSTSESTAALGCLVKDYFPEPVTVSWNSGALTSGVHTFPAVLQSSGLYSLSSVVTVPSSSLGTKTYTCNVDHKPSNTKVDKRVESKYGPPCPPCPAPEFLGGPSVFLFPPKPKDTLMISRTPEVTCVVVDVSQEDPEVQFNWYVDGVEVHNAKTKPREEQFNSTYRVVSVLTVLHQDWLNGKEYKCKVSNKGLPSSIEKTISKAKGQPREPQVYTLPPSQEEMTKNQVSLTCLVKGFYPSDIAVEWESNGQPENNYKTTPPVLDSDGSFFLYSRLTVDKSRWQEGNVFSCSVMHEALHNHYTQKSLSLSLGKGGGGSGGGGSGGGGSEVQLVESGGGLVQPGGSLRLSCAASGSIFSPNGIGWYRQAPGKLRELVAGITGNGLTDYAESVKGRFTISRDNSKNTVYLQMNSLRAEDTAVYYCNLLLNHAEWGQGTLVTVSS
light: B1 light
notes: IgG4 subtype
B3: constructed antibody A24 (bispecific antibody, human IgG1, kappa)
heavy: not shown
light: B1 light
notes: IgG1 subtype
B4: constructed antibody A25 (bispecific antibody, human IgG1, kappa)
heavy: not shown
light: B1 light
notes: IgG1 subtype

The target of this assay is T1, human-NKP30-His. Briefly: ELISA, human-NKP30-His coated. As to the method: The human-NKP30-His (purchased from ACRO Biosystems) was diluted to 0.5 μg/mL using pH 7.4 PBS buffer and 100 μL per well was added to a 96-well ELISA plate and coated overnight at 4° C. The plates were closed with 1% BSA blocking solution for 1 hour and washed 3 times with PBST. […] The plate was washed 3 times with PBST and HRP-labelled goat anti-human IgG Fc was diluted 1:20000 with sample diluent, 100 μL for each well was added and incubated for 1 h at room temperature. After washing the plate 4 times with PBST, 100 μL of TMB substrate was added into each well and incubated for 10 min at room temperature, avoiding light. Then 100 μL of 1 M HCl was added into each well to terminate the colour development reaction. The absorbance value of each well in the 96-well plate was measured on a multifunctional enzyme standard at a wavelength of 450 nm and a reference wavelength of 570 nm, absorbance value (OD) per well=OD_{450 nm}−OD_{570 nm}. The concentration of the constructed antibody was logarithmically used as the horizontal coordinate, the measured absorbance value per well as the vertical coordinate, and the Sigmoidal dose-response (Variable Slope) method (Graph Pad Prism Software, Graph Pad Software, San Diego, California) was selected for non-linear regression to obtain the binding curve between the target antibody and NKP30 protein.
(In general: An ELISA detects its analyte on a solid surface through an enzyme-linked reagent.)
In the case of B1, the binding result is listed as “binds”.

In the case of B2, the binding result is listed as “binds”.

Take B3: the binding result is “binds”.

For the molecule B4, the binding result was “binds”.
